Key:
[1] = biological target: mutant Huntingtin exon 1 fragment with Q71, unlabelled (Q71); assay: FRET or BRET
FRET or BRET = biological target: the molecule itself; assay: FRET or BRET

mutant Huntingtin exon 1 fragment with Q71, unlabelled (Q71), sequence (P42858 whole entry, change not shown, the tested form may be a part): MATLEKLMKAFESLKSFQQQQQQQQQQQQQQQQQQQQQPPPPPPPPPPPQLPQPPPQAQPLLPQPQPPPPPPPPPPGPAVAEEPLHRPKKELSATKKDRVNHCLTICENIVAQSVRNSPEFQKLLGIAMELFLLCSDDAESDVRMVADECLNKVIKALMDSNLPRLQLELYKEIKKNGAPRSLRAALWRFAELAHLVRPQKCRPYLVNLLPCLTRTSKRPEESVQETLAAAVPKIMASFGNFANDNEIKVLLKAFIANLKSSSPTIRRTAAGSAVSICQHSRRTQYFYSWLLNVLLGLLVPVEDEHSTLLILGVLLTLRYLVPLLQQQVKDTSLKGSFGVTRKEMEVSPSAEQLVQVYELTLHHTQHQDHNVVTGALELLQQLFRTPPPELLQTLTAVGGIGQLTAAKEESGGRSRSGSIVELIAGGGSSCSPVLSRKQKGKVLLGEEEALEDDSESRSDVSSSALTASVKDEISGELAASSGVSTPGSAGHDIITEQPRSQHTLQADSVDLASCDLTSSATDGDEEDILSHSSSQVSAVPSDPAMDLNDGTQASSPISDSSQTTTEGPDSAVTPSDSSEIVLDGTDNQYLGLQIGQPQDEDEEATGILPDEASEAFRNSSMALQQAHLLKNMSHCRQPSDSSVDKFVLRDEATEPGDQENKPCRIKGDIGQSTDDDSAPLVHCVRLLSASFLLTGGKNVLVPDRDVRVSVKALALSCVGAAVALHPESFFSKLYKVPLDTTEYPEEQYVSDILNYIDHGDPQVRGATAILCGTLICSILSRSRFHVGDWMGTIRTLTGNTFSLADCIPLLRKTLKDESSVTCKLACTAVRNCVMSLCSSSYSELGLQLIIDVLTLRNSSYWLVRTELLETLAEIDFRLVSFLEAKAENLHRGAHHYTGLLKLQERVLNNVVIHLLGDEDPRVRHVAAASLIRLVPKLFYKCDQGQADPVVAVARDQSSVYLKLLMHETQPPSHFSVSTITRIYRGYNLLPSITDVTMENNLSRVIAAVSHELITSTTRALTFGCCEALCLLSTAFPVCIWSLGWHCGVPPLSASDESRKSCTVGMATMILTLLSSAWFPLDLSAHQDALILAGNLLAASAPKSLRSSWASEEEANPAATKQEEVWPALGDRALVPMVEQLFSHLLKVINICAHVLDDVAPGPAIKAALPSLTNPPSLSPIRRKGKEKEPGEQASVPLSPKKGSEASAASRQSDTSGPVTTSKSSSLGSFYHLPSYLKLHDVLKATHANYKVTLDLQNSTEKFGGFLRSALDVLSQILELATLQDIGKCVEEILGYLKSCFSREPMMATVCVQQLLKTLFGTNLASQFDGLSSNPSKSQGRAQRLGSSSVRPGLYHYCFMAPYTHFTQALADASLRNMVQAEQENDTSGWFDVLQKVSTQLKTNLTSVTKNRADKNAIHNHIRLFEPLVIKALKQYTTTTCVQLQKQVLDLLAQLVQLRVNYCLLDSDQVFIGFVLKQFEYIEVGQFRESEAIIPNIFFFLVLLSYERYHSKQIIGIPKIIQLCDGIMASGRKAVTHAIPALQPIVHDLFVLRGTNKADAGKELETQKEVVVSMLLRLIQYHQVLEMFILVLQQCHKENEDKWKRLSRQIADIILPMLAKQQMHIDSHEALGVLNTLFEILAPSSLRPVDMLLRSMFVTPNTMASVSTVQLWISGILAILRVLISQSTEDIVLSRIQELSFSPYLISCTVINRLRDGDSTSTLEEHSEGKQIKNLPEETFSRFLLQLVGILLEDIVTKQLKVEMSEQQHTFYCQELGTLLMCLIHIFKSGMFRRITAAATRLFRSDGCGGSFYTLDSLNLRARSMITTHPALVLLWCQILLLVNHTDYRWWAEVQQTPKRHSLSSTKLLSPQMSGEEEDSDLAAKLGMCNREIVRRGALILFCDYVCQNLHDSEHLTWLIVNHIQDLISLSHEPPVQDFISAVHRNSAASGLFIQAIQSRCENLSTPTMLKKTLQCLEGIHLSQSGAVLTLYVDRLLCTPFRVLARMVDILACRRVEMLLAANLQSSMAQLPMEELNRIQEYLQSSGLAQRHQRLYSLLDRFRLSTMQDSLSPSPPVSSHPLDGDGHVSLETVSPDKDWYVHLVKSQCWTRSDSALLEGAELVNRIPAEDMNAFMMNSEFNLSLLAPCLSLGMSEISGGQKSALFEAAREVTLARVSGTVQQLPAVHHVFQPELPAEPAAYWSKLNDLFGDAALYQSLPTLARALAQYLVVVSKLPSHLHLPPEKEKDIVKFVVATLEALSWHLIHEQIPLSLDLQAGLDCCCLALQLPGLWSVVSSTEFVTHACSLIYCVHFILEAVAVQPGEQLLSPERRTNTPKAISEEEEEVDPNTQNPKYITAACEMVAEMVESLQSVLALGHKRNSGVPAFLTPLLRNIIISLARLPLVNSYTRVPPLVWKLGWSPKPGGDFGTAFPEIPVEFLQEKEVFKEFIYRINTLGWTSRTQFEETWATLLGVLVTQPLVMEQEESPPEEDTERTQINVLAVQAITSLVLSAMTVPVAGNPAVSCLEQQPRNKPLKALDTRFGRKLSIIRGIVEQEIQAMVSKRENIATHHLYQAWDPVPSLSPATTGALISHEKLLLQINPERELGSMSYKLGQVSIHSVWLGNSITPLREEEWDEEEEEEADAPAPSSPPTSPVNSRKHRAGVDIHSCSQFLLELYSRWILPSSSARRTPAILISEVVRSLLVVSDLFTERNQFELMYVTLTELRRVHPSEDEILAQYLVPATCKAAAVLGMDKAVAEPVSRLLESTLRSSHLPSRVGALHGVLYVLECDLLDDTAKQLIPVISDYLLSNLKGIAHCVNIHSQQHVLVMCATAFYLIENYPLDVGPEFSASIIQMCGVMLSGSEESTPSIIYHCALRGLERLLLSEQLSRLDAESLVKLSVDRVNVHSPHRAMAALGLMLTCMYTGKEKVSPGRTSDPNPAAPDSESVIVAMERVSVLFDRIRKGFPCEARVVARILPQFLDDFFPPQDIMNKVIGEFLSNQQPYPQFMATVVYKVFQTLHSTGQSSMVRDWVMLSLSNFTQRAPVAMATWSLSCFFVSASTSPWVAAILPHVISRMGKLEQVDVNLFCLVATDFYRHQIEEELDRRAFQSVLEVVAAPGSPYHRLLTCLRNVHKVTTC

| Molecule | FRET/donor ratio in aggregates with Q71 [1] | FRET/donor ratio in foci (FRET or BRET) |
| --- | --- | --- |
| DNAJB6b fused to mVenus-mCherry at its N-terminus (VC-DNAJB6) (from UniProt O75190-2 1-241) (natural protein) | 0.6 | – |
| FUS R521C fused to mVenus-mCherry at its N-terminus (VC-FUSR521C) (natural protein) MASNDYTQQATQSYGAYPTQPGQGYSQQSSQPYGQQSYSGYSQSTDTSGYGQSSYSSYGQSQNTGYGTQSTPQGYGSTGGYGSSQSSQSSYGQQSSYPGYGQQPAPSSTSGSYGSSSQSSSYGQPQSGSYSQQPSYGGQQQSYGQQQSYNPPQGYGQQNQYNSSSGGGGGGGGGGNYGQDQSSMSSGGGSGGGYGNQDQSGGGGSGGYGQQDRGGRGRGGSGGGGGGGGGGYNRSSGGYEPRGRGGGRGGRGGMGGSDRGGFNKFGGPRDQGSRHDSEQDNSDNNTIFVQGLGENVTIESVADYFKQIGIIKTNKKTGQPMINLYTDRETGKLKGEATVSFDDPPSAKAAIDWFDGKEFSGNPIKVSFATRRADFNRGGGNGRGGRGRGGPMGRGGYGGGGSGGGGRGGFPSGGGGGGGQQRAGDWKCPNPTCENMNFSWRNECNQCKAPKPDGPGGGPGGSHMGGNYGDDRRGGRGGYDRGGYRGRGGDRGGFRGGRGGGDRGGFGPGKMDSRGEHRQDCRERPY | – | ~0.66 |
